Key:
Truncated TFPI-K1K2 = Truncated TFPI-K1K2 (UniProt P10646 SEQ:1-161); assay: filter; no detectable binding up to 500 nM; details: tags: American Diagnostica, E. coli expressed; label: radiolabel
Experimental: Trace amounts of radiolabeled ARC17480 were incubated with different concentrations of truncated TFPI-K1K2 (500 nM-0.008 nM) and the K3-C-terminal domain protein (500 nM-0.7 nM) (Table 1). […] Trace amounts of radiolabeled ARC17480 were incubated with different concentrations of the C-terminal peptide (10 μM-0.17 nM) (Table 1). Neutravidin (˜100 nM monomer) was then added to the binding solution to assist in the capture of aptamer:peptide complexes on a nitrocellulose filter. The amount of radiolabeled aptamer captured on a nitrocellulose filter was quantitated and compared to the total amount of radiolabeled aptamer to generate a binding curve, which is shown in FIG. 17B.

Kallikrein = Kallikrein (UniProt P03952;P03952 P03952:20-390,P03952:391-638); assay: filter; no significant affinity up to 0.5-1 uM; details: label: radiolabel
Heparin cofactor II = target: T1, Heparin cofactor II (UniProt P05546 P05546:20-499); assay: filter; no significant affinity up to 0.5-1 uM; details: label: radiolabel
T1 sequence: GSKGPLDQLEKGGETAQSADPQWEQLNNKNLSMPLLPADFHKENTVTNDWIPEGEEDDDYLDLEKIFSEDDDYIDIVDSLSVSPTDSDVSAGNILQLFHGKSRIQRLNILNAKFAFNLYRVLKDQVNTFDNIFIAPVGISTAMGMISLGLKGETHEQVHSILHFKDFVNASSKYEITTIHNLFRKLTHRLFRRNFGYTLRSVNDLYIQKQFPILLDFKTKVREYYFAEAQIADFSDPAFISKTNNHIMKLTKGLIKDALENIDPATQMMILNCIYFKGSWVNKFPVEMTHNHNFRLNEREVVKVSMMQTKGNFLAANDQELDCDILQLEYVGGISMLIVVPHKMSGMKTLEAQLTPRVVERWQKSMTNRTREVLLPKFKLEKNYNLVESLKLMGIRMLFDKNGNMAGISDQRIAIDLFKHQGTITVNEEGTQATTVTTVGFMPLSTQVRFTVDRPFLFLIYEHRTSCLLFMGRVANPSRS

Factor VIIa = Factor VIIa (UniProt P08709;P08709 P08709:61-212,P08709:213-466); assay: filter; no significant affinity up to 0.5-1 uM; details: label: radiolabel
Factor Xa = Factor Xa (UniProt P00742;P00742 P00742:41-179,P00742:235-488); assay: filter; no significant affinity up to 0.5-1 uM; details: label: radiolabel
TFPI-2 = target: T2, TFPI-2 (UniProt P48307 P48307:23-235); assay: filter; no significant affinity up to 0.5-1 uM; details: label: radiolabel
T2 sequence: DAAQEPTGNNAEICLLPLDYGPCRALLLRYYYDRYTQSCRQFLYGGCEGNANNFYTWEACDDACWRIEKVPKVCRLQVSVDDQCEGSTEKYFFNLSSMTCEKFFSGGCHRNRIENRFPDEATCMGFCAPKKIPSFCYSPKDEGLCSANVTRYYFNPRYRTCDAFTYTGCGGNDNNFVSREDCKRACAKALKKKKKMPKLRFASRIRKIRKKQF

Factor XIa = Factor XIa (UniProt P03951;P03951 P03951:19-387,P03951:388-625); assay: filter; no significant affinity up to 0.5-1 uM; details: chain copies: 2; label: radiolabel
Antithrombin (ATIII) = Antithrombin (ATIII) (UniProt P01008 P01008:33-464); assay: filter; no significant affinity up to 0.5-1 uM; details: label: radiolabel
Factor Va = Factor Va (UniProt P12259;P12259 P12259:29-737,P12259:1574-2224); assay: filter; no significant affinity up to 0.5-1 uM; details: label: radiolabel
Factor IXa = Factor IXa (UniProt P00740;P00740 P00740:47-191,P00740:227-461); assay: filter; no significant affinity up to 0.5-1 uM; details: label: radiolabel
[1] = target: alpha-1 antitrypsin (serpin-A1) (UniProt P01009 P01009:25-418); assay: filter; no significant affinity up to 0.5-1 uM; details: label: radiolabel
Prothrombin = Prothrombin (UniProt P00734 P00734:44-622); assay: filter; no significant affinity up to 0.5-1 uM; details: label: radiolabel
Plasmin = Plasmin (UniProt P00747;P00747 P00747:97-580,P00747:581-810); assay: filter; no significant affinity up to 0.5-1 uM; details: label: radiolabel
alpha-Thrombin = alpha-Thrombin (UniProt P00734;P00734 P00734:328-363,P00734:364-622); assay: filter; no significant affinity up to 0.5-1 uM
[2] = target: T3, TFPI (tissue factor pathway inhibitor, full-length) (Homo sapiens, UniProt P10646 SEQ:1-276); assay: competition; dot-blot vs radiolabeled ARC17480, 10 nM TFPI; details: tags: American Diagnostica 4500PC/4900PC, E. coli expressed
Experimental: Each molecule was evaluated for binding to tissue factor pathway inhibitor (TFPI) in a binding-competition assay. For these experiments, 10 nM human TFPI (American Diagnostica, Stamford, Conn., catalog #4500PC) was incubated with trace amounts of radiolabeled ARC17480 and 5000 nM, 1666.67 nM, 555.56 nM, 185.19 nM, 61.73 nM, 20.58 nM, 6.86 nM, 2.29 nM, 0.76 nM or 0.25 nM of unlabeled competitor aptamer. ARC17480 was included as a competitor in every experiment as a control. For each molecule, the percentage of radiolabeled ARC17480 bound at each competitor aptamer concentration was used for analysis. The percentage of radiolabeled ARC17480 bound was plotted as a function of aptamer concentration and fit to the equation y=(max/(1+x/IC₅₀))+int, where y=the percentage of radiolabeled ARC17480 bound, x=the concentration of aptamer, max=the maximum radiolabeled ARC17480 bound, and int=the y-intercept, to generate an IC₅₀ value for binding-competition. The IC₅₀ of each aptamer was compared to the IC₅₀ of ARC17480 that was evaluated in the same experiment. A substitution was considered tolerated in the binding-competition assay if the IC₅₀ of that molecule was not more than 5-fold greater than that of ARC17480 evaluated in the same experiment. Tolerated substitutions are indicated in Table 37 as meeting the assay criteria (“yes”) or not meeting the assay criteria (“no”).

[3] = target: T3, TFPI (tissue factor pathway inhibitor, …); assay: competition; dot-blot, 10 nM TFPI; details: tags: American Diagnostica 4500PC/4900PC, E. coli expressed
Experimental: The substituted ARC17480 molecules were assayed for binding and function. The assays used for this evaluation were the calibrated automated thrombogram (CAT) assay, a dot-blot binding-competition assay and a FXa activity assay. The results of these assays are summarized in Table 40 and depicted in FIG. 147. A mutation was considered tolerated for activity if it met the criteria of at least two of the three assays that were carried out. Mutations that are tolerated (“yes”) and not tolerated (“no”) are identified in Table 40. The experimental details and the criteria used for each assay are described in the following paragraphs. The molecules described in this example were first tested in the CAT assay and the dot-blot binding-competition assay. In most cases, molecules were only tested in the FXa assay if there was a discrepancy between the results in the CAT assay and the dot-blot binding-competition assay.
Each molecule was evaluated for binding to tissue factor pathway inhibitor (TFPI) in a binding-competition assay. […] The IC₅₀ of each aptamer was compared to the IC₅₀ of ARC17480 that was evaluated in the same experiment. A mutation was considered tolerated in the binding-competition assay if the IC₅₀ of that molecule was not more than 5-fold greater than that of ARC17480 evaluated in the same experiment. […]

GGAAUAUACUUGGCUCGUUAGGUGCGUAUAUA (mixed, 2'-OMe A/G/U, 2'-deoxy C, 3' idT) [ARC17480]
binding result (Truncated TFPI-K1K2): no binding | binding result (Kallikrein): no binding | binding result (Heparin cofactor II): no binding | binding result (Factor VIIa): no binding | binding result (Factor Xa): no binding | binding result (TFPI-2): no binding | binding result (Factor XIa): no binding | binding result (Antithrombin (ATIII)): no binding | binding result (Factor Va): no binding | binding result (Factor IXa): no binding | binding result [1]: no binding | binding result (Prothrombin): no binding | binding result (Plasmin): no binding | binding result (alpha-Thrombin): no binding

GGAAUAUACUUGGCUCGUUAGGUGCGUAUAUA (XNA, 2'-OMe except dC9, dC16, dC25; 2'-OMe C14; 3' idT) [ARC18539]
binding signal [2]: ≤ 5 fold IC50 vs ARC17480

AGAAUAUACUUGGCUCGUUAGGUGCGUAUAUA (XNA, 2'-OMe except dC9, dC14, dC16, dC25; 3' idT) [ARC34856]
binding signal [3]: ≤ 5 fold IC50 vs ARC17480

Reference: patent publication US20110281938, “APTAMERS TO TISSUE FACTOR PATHWAY INHIBITOR AND THEIR USE AS BLEEDING DISORDER THERAPEUTICS” (Baxter Healthcare S.A., published 2011)
